The supplement of paper PMC9170038

Test system: MS2 coat protein
Assay: apparent KD of MS2 coat protein; higher = weaker reporter binding
Conditions: Eterna round: R107
Experimental: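 RNA-MaP round R107: designed RNA switches with theophylline, tryptophan, arginine or FMN aptamers are transcribed on-chip within common flanks. They are titrated with SNAP-549-labelled MS2 coat protein in RNA-MaP buffer (100 mM Tris pH 7.5, 80 mM KCl, 4 mM MgCl2), without ligand or with the indicated ligand. Median apparent KD per design.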

[1] = input ligand: theophylline 20 uM
[2] = input ligand: theophylline 2 mM
[3] = input ligand: tryptophan 2.4 mM

Row | Sequence | apparent KD of MS2 coat protein (input ligand: arginine 13.2 mM) [nM] | apparent KD of MS2 coat protein (input ligand: none) [nM] | apparent KD of MS2 coat protein [1] [nM] | apparent KD of MS2 coat protein [2] [nM] | apparent KD of MS2 coat protein [3] [nM]
1 | AAUUCCUAACAUGAGGAUCACCCAUGUGAAGGAGCGCCGAAUAAGGCAGGUAGGUCGCACAUGGAACAGCUGCGAAAGAGGAAAA [XArg-A 5 V1&2] | 11.9 | 13.2 | 15.3 | 12.5 | 12.7
2 | AAUUGGGUUGGUGAGGUGGUUGGAGGCGAUACCAGCGUGGAAACACGCCCUUGGCAGCGCCAAAACAUGAGGAUCACCCAUGUUA [Plzen] | 42 | 475 | 365 | 484 | 157
3 | AAUUGGGUUGGUGAGGUGGUUGGAGGCGAUACCAGCGUGGAAACACGCCCUUGGCAGCGCCAGGACAUGAGGAUCACCCAUGUUA [Brno] | 48.9 | 131 | 160 | 448 | 175
4 | AAUUUAUGGUUCUUGAUGUAGUAUCUAUUUCGAGGACCGGUACGGCCGCCACUCGUAAAUUACAUGAGGAUCACCCAUGUUAGCU [JR_ExcTryptoA_Sub011] | 18.8 | – | 27 | 28.8 | –
5 | AAUUUUCACGGAAGGAGCGUCACGUAAUUCAUACAUGAGGAUCACCCAUGUUAGUGGUAGAGACAGGUAGGUCGCCGUUAUUUGA [JR_AAArginiB_Sub026] | 14.3 | 16.8 | 35.3 | 20.3 | 21.4
6 | ACACACAUGAGGAUCACCCAUGUCUAUAUACGAGGACCGGUACGGCCGCCACUCGUGAGAUCGCGAGAGACAGCUUUGGGCUAGU [theeternabot_sameState_MS2_Trp_A_37] | 17 | – | 23.9 | 19 | –
7 | ACACAUGAGGGAAGGAGCGCCAUGAACACACAUGAGGAUCACCCAUGUUUUUUUUGUGUUUGGCAGGUAGGUCGCCCACAUGAGG [Same State Arginine B 2] | 7.38 | 10.1 | 22.5 | 9.33 | 7.57
8 | ACACGAAGCUGAAGGAGCGUGAUAUAAAUUUUUACAUGAGGAUCACCCAUGUUUCAUCGAUCACAGGUAGGUCGCAGAUGCGUGA [JR_SSArginiB_Sub013] | 15.2 | 14.4 | 16.9 | 16.9 | 14.8
9 | ACAUAGAGAUUAAUCGUGGGCAUACUCGAUACCAGUAUUUUAACCUACCCUUGGCAGCGACAUGAGGAUCACCCAUGUGAGAUGA [XTheo A #9] | 21.2 | – | 25.1 | – | 23
10 | ACAUGAAGAACAGCGGUGGGCGCGCUCGAUACCAGUACUUUGAUAUACCCUUGGCAGCGACAUGAGGAUCACCCAUGUGAGAUGA [XTheo A #2] | 16 | – | 23.9 | – | 18.1
11 | ACAUGAGCAUCAGCCAUGUGUAUGACAUGACGAGGACCGGUACGGCCGCCACUCGACAUGAGGAUCACCCAUGUUGAGGAUCACA [Exclusion - Tryptophan A #1] | 7.95 | – | 11.2 | 11.3 | –
12 | ACAUGAGGAUCACCCAUGUAAAUAACGGAAGGAGCGUGCAAAAGCACAGGUAGGUCGCCGAUAUAAAUAUUGGGUAUUAUAUUAU [AstrosExyArgA#2] | 23.9 | 33.6 | 39.3 | 29 | 28.5
13 | ACAUGAGGAUCACCCAUGUAAGUUUCAGAAGGAGCGUGAAUUAUCACAGGUAGGUCGCUGAAGUUUGCAUAUACUUAUAAAUGUA [JR_ExcArginiA_Sub006] | 21 | 22.5 | 26.6 | 26.5 | 19.8
14 | ACAUGAGGAUCACCCAUGUAAUGGCACGAUACCAGCUGAUCCCGUGGCCCUUGGCAGCGUCCGGUGUGGUCCGCCGGGUUGGACG [XXXMULLIN] | 24.4 | – | 38.7 | – | 24.1
15 | ACAUGAGGAUCACCCAUGUACAUGAGGGAAGGAGCGGUACAUGUGCCAGGUAGGUCGCCCAAGAGCAUCAGCCAUGUACAUCAGC [qasmullin] | 43.5 | 131 | 131 | 90 | 80.5
16 | ACAUGAGGAUCACCCAUGUAUGAUGUUCCUCGAGGACCGGUACGGCCGCCACUCGAACGAGUGGCACGCGAGUGCGCACUCGCGU [aXa] | 22.1 | 14.2 | 19.6 | 14.9 | 11.7
17 | ACAUGAGGAUCACCCAUGUAUUACCGGGAAGGAGCGCGUAAGGACGCAGGUAGGUCGCUCGGCGUCGUGCUGGAAAGCACGACGA [#1 Same State - Arginine A Attempt #23 (HarryS)] | 12.9 | 14.1 | 20.7 | 17.9 | 15.1
18 | ACAUGAGGAUCACCCAUGUCACGGCACGAUACCAGCUGAUCCGGUGGCCCUUGGCAGCGUCACGUUUGGUCCCGCGGAUGACACG [klmmullin] | 29.4 | – | 89.6 | – | 65.5
19 | ACAUGAGGAUCACCCAUGUCACGGCACGAUACCAGCUGAUCCGGUGGCCCUUGGCAGCGUGACGUUUGGUCCCGCGGAUGACACG [ppmullin] | 96.5 | – | 142 | – | 137
20 | ACAUGAGGAUCACCCAUGUCUGCCACUGAUACCAGCGGAAGAAAACGCCCUUGGCAGCAGAACAUGAGGAUCACCCAUGUAGGCU [Same State Theophylline A GF29] | 39.6 | – | 166 | – | 140

Row | Sequence | apparent KD of MS2 coat protein (input ligand: arginine 13.2 mM) [nM] | apparent KD of MS2 coat protein (input ligand: none) [nM] | apparent KD of MS2 coat protein [1] [nM] | apparent KD of MS2 coat protein [2] [nM] | apparent KD of MS2 coat protein [3] [nM]
21 | ACAUGAGGAUCACCCAUGUGCAUCACCCGACGAGGACCGGUACGGCCGCCACUCGGGUAUAUAUUUACAUCGGGUGAUUUUACGU [#24 Tryptophan A Same State] | 29.1 | – | 55.9 | 51.8 | –
22 | ACAUGAGGAUCACCCAUGUGCAUGAUGAUCCGAGGACCGGUACGGCCGCCACUCGUCAUGAUGAUCUUUCAUGUUUGUCGCGCGC [Flamini II] | 62.6 | – | 326 | 422 | –
23 | ACAUGAGGAUCACCCAUGUGGCGACUUGAUACCAGACCCGCACUAGUCCCUUGGCAGCAACUACGUGAGGGUCACCCAUGUGAAG [vndullin] | 35.5 | 20 | 29.3 | 28.9 | 18.3
24 | ACAUGAGGAUCACCCAUGUGGCGACUUGAUACCAGACCCGCACUAGUCCCUUGGCAGCAACUACGUGUGGGACACCCAUGUUAAG [lplmullin] | 17.3 | – | 22.7 | – | 16
25 | ACAUGAGGAUCACCCAUGUUAAGCACAGAAGGAGCGUGAAGAAACACAGGUAGGUCGCUGUACUUAUCGAGCGUUAGCUCGAUAC [JR_Nu_SSArginiA_Sub029] | 13.7 | 23.1 | 29 | 26.4 | 20.9
26 | ACAUGAGGAUCACCCAUGUUCCUCAUUGAUACCAGUGAAAGAAGACGCCCUUGGCAGCGAGAAGAAGAAGAAGAAGAAGAAGAGG [6.A] | 48.4 | 725 | 425 | 671 | 588
27 | ACAUGAGGAUCACCCAUGUUCCUCAUUGAUACCAGUGAAAGAAGACGCCCUUGGCAGCGAGAAGAAGAAGAAGAAGUUUUUUUUU [6.B] | 209 | – | 770 | – | 917
28 | ACAUGAGGAUCACCCAUGUUCCUCGCCGAUACCAGUGAAGAAGAACGCCCUUGGCAGCGGAAAGAAUAUAUUGGAGAUGAUAUAU [6.U] | 111 | – | 252 | – | 225
29 | ACAUGAGGAUCACCCAUGUUCCUCGCCGAUACCAGUGAAGAAUUACGCCCUUGGCAGCGGAAAGAGUAUUUUGGAGAUGAGGUAC [6.Z] | 51.7 | – | 127 | – | 66
30 | ACAUGAGGAUCACCCAUGUUUGAUGUUCCUCGAGGACCGGUACGGCCGCCACUCGAACGAGUGGCGCGCGAGUGCGCACUCGCGC [aSa] | 11.3 | – | 20.1 | 13 | –
31 | ACAUGGGUCUGAAGGAGCGCGAUAACAUGAGGAUCACCCAUGUAAAGUGGAACAUGAUAAUCGCAGGUAGGUCGCAGUAAAACCC [#26 Same State - Arginine B] | 81.6 | 412 | 293 | 476 | 328
32 | ACAUUUAACUGAAGGAGCGUGAUAUUUACAUGAGGAUCACCCAUGUCUUUCAUGAAUAAUUCACAGGUAGGUCGCAGACUAAUGA [JR_ExcArginiB_Sub007] | 96.8 | 116 | 159 | 158 | 129
33 | ACAUUUAACUGAAGGAGCGUGAUUUCUACAACAUGAGGAUCACCCAUGUUCAUUACUCAUUCACAGGUAGGUCGCAGACUAAUGA [JR_SSArginiB_Sub031] | 20.9 | 20.2 | 26.8 | 23.5 | 21
34 | ACCAUGUAAUCAGAUACCAGACAUCUUUUAAAUCAUAUUACAUGAGGAUCACCCAUGUUGGUCCCUUGGCAGCUGAAAUAUUUUU [JR_Nu_SSTheophyB_Sub026] | 110 | – | 212 | – | 303
35 | ACCUCACUCUCUGAUACCAGCUAACAACAUGAGGAUCACCCAUGUCAGACUUGUAUUGAUAGCCCUUGGCAGCAGAGGUAACUGC [#16 Exclusion-TheophyllineB] | 13.9 | – | 21.2 | – | 16.8
36 | ACCUGCGUUUGAUAAAAUCAGACGCAGGUUCGAGGACCGGUACGGCCGCCACUCGGACAUGAGGAUCACCCAUGUUUGACAUGGG [#05 Exclusion Tryptophan A] | 168 | – | 301 | 746 | –
37 | ACCUGUACGAAAAGUGCAGGACACGGAAUACGAGGACCGGUACGGCCGCCACUCGGAAACCUGAGGAUCACCCUGGUAAACCGUG [TrypAS 12 #AlternativeMS2 #Zipper #StaticStem] | 26.9 | 25.2 | 33.5 | 31.1 | 23.3
38 | ACGAACGAUAGCGAUACCAGACGUACAUGAGGAUCACCCAUGUUUUGGGUAAGGUUAAUAGUCCCUUGGCAGCGCUUUAAGUUCG [#10 Exclusion-TheophyllineB] | 50.5 | – | 89.7 | – | 59
39 | ACGACAUGAGGAUCACCCAUGUGUACUGAAGGAGCGGCGGAAACGCCAGGUAGGUCGCAGUACACCUCAACCAGCGGUCCUAAGU [EAA NP+V+V2 #2] | 27 | 64.1 | 78.4 | 107 | 64.3
